Laboratory results as given in publication PMC2758704, “Human Papillomavirus-16 E7 Interacts with Glutathione S-Transferase P1 and Enhances Its Role in Cell Survival” (PLoS ONE, 2009).
Ends that are not written are not given here.

Molecular target: T1, N-6His-GSTP1 recombinant protein (human, UniProt P09211 1-210)
T1 construct: human GSTP1, ORF made by RT-PCR from HaCaT RNA, cloned through pDONR201 into pDEST17; The printed forward primer begins at the codons for Pro-Pro-Tyr-Thr (residue 2, without the first Met) and the reverse primer holds the stop codon; Gateway attB1 linker residues lie between the His tag and GSTP1; also called recombinant GSTP1; not shown: His6, N-terminal, kept
T1 sequence (P09211 whole entry): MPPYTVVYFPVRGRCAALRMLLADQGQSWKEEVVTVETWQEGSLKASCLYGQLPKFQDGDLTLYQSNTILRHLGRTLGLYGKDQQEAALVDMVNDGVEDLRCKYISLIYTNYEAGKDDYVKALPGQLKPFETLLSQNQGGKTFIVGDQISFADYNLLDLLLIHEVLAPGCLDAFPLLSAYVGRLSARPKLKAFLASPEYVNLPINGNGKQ
Test: peptide or protein array; PepSets: 30 rod-bound 12-mers of HPV-16 E7 with a 9 amino acid overlap; recombinant GSTP1 captured by each rod detected by an immunoenzyme assay with an anti-GSTP1 polyclonal antibody
Details: both partners purified

B1: HPV-16 E7 12-mer peptide aa 49–60 (peptide)
peptide: RAHYNIVTFCCK
modifications: cysteine pairing not given here; also: bound to a polypropylene rod
notes: residues 49-60 of the E7 oncoprotein of HPV-16; also called peptide 49–60; the 49–60 12-mer; source: synthetic peptide, on polypropylene rods (PepSets, Mimotopes)
Q: Does B1 bind?
A: binds

B2: HPV-16 E7 C-terminal 12-mer peptide (30th rod, amino acids 88–99 with an added Gly) (peptide)
peptide: GIVCPICSQKPG
modifications: cysteine pairing not given here; also: bound to a polypropylene rod
notes: residues 88-98 (the C-terminus) of the E7 oncoprotein of HPV-16; a Gly added to the last C-terminal HPV-16 E7 amino acid to complete the 12-mer; The text names the region aa 89–98 in one place and 88–98 in others; also called C-terminal 88–98 peptide; C-terminal portion (aa 89–98); source: synthetic peptide, on polypropylene rods (PepSets, Mimotopes)
Q: Does B2 bind?
A: binds
